Substitutions are numbered along the chain they refer to. Numbers in names are those of the source.
T1: G-CSF receptor linked to Fc domain of human IgG (human, UniProt Q99062 25-627, limits assumed)
T1 sequence (looked up): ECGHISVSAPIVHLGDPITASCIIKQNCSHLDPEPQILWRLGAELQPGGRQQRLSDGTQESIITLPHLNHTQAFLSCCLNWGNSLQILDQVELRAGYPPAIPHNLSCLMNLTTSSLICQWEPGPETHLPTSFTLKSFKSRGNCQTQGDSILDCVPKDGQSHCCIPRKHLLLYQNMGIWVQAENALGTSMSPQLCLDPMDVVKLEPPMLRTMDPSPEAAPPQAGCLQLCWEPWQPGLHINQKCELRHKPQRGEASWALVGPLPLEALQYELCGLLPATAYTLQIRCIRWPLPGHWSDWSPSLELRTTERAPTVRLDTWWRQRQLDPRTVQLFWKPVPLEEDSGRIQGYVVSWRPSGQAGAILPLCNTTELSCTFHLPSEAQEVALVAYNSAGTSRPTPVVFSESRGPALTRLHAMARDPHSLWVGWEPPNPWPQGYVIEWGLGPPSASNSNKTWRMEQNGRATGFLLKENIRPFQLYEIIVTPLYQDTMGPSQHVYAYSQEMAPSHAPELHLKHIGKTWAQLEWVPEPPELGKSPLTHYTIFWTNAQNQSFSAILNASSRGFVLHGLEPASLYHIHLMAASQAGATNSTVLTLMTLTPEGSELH

B1: wild type G-CSF (ligand)
chain: TPLGPASSLPQSFLLKCLEQVRKIQGDGAALQEKLCATYKLCHPEELVLLGHSLGIPWAPLSSCPSQALQLAGCLSQLHSGLFLYQGLLQALEGISPELGPTLDTLQLDVADFATTIWQQMEELGMAPALQPTQGAMPAFASAFQRRAGGVLVASHLQSFLEVSYRVLRHLAQP
notes: cDNA from leukocytes of healthy people; expressed in CHO-K1 cells; also called G-CSF wild type
B2: G-CSF F13V (ligand)
cytokine chain: B1 chain with F13V
notes: used as CHO-K1 culture supernatant
B3: G-CSF F113V (ligand)
cytokine chain: B1 chain with F113V
notes: as for B2
B4: G-CSF-[F140V] (ligand)
chain: B1 chain with F140V
notes: G-CSF mutein expressed in CHO-K1 cells; also called G-CSF-[F140VD]
B5: G-CSF-[F160V] (ligand)
chain: B1 chain with F160V
notes: G-CSF mutein expressed in CHO-K1 cells

Each binder was assayed against T1, G-CSF receptor linked to Fc domain of … (assay: ELISA on coated G-CSF receptor-Fc, done like the TPO ELISA).

B1 and B2 are within 1.5-fold of each other in “EC50 (read off the curve)” value: about 0.04 mg/L for the first, about 0.03 mg/L for the second.

B3 and B4 are the same in “EC50 (read off the curve)” value: about 0.06 mg/L for the first, about 0.06 mg/L for the second.

In the case of B5, the “EC50 (read off the curve)” value is reported as about 0.04 mg/L.

Reference: US20130089513A1 (MEDEXGEN, published 2013)
